In patent publication US20100196385A1 (AstraZeneca / MedImmune, published 2010):

T1: human Dll1 (human, UniProt O00548 18-723)
T1 construct: whole, on cells
T1 sequence (looked up): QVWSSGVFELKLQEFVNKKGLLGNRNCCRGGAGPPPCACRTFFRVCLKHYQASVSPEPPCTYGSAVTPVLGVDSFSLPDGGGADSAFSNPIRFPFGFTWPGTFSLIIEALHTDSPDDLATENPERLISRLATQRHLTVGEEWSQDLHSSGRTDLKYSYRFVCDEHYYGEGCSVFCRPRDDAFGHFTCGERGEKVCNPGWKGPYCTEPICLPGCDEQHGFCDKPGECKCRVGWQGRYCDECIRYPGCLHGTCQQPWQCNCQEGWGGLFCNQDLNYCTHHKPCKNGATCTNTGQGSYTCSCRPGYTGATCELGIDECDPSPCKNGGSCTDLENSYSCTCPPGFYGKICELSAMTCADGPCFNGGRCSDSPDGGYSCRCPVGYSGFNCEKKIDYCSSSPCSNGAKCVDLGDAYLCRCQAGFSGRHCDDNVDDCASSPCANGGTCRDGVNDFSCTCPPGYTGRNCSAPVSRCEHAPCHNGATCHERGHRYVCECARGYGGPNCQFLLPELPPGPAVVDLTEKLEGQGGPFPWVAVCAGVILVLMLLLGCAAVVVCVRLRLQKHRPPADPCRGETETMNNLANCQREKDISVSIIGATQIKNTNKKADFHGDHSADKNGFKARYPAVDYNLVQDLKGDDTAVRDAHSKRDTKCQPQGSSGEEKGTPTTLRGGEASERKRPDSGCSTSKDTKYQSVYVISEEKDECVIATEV

B1: 1E4 (antibody, IgG2, V domains shown)
VH: QVQLVESGGGVVQPGRSLRLSCAASGFTFSSYGMHWVRQAPGKGLEWVAVTWYDGSNKYYADSVKGRFTISRDNSKNTLYLQMNSLRAEDTAVYYCARENCSSTSCYYTVTTDYYGMDVWGQGTTVTVSS
VL: EIVLTQSPGTLSLSPGERATLSCRASQRVSSSYLTWYQQKPGQAPRLLIYGASIRATGIPDRFSGSGSGTDFTLTITRLEPEDFAVYFCQQCYTSPITFGQGTRLDIK
notes: Fully human; also used where no isotype is printed
B2: 3A7 (antibody, IgG4, V domains shown)
VH: EVQVVESGGGLVQPGGSLRLSCEASGFTFSNYWMIWVRQAPGKGLEWVASIKEDGSEKYYVDSVKGRFTISRDNAKSSLYLQMNSLRAEDTAVYYCVRDWELRGHYYYHGMDVWGQGTTVTVSS
VL: DIQMTQSPSSLSASVGDRVTITCRASLDIRNDLGWFLQKPGKAPKRLIYAASSLQSGVPSRFSGSGSGTEFTLTINSLQPEDFATYYCLQHRNYPFTFGPGTKVDFK
notes: as for B1
B3: 1D4 (antibody, IgG4, V domains shown)
VH: QLQLQESGPGLVKPSETLSLTCTVSGGSISSSSYYWGWIRQPPGKGLEWIGSFYYSRSTYYNPSLKSRVTISVDTSKNQFSLKLSSVTAADTAVHYCARGSIAVPDAFDIWGQGTMVTVSS
VL: SYELTQPPSVSVSPGQTASITCSGDKLGDKFACWYQQKPGHSPVLVVYQDNKRPSGIPERFSGSNSGNSATLTISGTQAMDEADYYCQAWDSNTAVFGGGTKLTVL
notes: Fully human XenoMouse antibody; also used where no isotype is printed

Each binder was assayed against T2, human Jagged1 (human, UniProt P78504 34-1218) (assay: FMAT, hybridoma supernatant, 293T cells with human Jagged1).
T2 construct: whole, on cells
Method: (§1) Cells diluted in PBS containing 2% FBS were seeded at a density of 3000 expressing and 15000 mock transfected cells per well in 384 well plates (Corning Costar, catalog #3712). Immediately after plating, 15 or 20 μl/well of hybridoma supernatants and 10 μl/well of secondary antibody (Goat anti-human IgG Fc Cy5, final concentration 750 ng/ml) were added and plates incubated for 3 h at room temperature prior to reading the fluorescence on the FMAT 8200 instrument (Applied Biosystems). The binding of human Notch1/Fc chimera (R&D systems, catalog #3647-TK), diluted 1:2 from 2.86 μg/ml was used as a positive control for DLL4 and human Notch3/Fc chimera diluted from 10 μg/ml was used a positive control for binding to Jagged1. Results for 12 hybridoma supernatants showing binding of hybridoma supernatants to human/cynomolgus monkey DLL4 and human Jagged are shown in Table 3.

T2 sequence (P78504 34-1218): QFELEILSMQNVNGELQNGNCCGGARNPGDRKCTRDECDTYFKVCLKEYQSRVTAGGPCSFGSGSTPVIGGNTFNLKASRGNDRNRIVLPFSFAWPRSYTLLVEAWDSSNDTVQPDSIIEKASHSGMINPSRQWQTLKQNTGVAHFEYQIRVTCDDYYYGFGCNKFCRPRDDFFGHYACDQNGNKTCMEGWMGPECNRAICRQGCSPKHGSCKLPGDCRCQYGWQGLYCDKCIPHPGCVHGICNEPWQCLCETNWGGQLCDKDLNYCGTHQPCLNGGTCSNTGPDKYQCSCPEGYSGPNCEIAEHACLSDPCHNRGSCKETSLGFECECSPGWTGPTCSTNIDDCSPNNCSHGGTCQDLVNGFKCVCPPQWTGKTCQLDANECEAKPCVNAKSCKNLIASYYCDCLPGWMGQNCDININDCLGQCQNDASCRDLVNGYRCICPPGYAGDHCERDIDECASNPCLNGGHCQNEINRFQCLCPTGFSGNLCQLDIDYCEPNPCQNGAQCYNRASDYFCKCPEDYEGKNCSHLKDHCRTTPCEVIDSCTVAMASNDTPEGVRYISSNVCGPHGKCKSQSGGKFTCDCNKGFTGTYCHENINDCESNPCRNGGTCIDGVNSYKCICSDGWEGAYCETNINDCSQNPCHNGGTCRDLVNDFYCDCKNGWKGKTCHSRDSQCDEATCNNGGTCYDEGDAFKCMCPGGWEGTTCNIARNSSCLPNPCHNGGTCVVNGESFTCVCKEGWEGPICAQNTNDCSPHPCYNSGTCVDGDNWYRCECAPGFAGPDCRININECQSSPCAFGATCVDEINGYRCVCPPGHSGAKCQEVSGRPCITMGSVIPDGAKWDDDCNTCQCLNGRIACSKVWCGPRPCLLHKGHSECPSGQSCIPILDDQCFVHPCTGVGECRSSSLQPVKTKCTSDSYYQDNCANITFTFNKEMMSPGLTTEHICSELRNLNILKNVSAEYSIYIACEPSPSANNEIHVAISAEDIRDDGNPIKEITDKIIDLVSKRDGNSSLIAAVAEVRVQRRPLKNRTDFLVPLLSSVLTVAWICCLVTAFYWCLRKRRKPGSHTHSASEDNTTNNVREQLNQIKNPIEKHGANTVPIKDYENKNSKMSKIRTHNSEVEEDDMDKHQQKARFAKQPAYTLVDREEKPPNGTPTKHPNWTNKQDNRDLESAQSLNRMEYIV

Binder | Count | FL1 | FL1 x count
B1 | 2 | 8020 | 16000
B2 | 1 | 1940 | 1940
B3 | 23 | 3250 | 74800

These binders were tested against T1, human Dll1 (assay: FACS, 15 µg/ml, 293T cells with human Dll1 vs mock).
Method: (§2) The ability of the purified antibodies to bind to human Jagged1 and Dll1 was determined by FACS analysis. […] Cells were resuspended in PBS containing 2% FCS and seeded at 50000 cells/well into V-bottomed plates. Anti-DLL4 antibodies diluted in PBS containing 2% FCS were added at a final concentration of 5 or 15 μg/ml and plates were incubated for 1 h at 4° C. […] Data was analyzed by comparing the shift in geometric mean fluorescence in the mock-transfected cells to that observed in the Jagged1- or Dll1-transfected cells and is shown in Tables 16 and 17.

Binder | Dll1/mock ratio
B1 | 1.15
B2 | 1.06
B3 | 1.09

What follows are binders tested against T1, human Dll1 (assay: FACS, 15 µg/ml, 293T cells with human Dll1).
Method: as §2

Binder | Dll1/293T X Geo mean
B1 | 31.7
B2 | 36.8
B3 | 35.3

The binders below were run against T3, full length human DLL4 (human, UniProt Q9NR61 27-685) (assay: FMAT, hybridoma supernatant, 293T cells with human DLL4).
T3 construct: whole, on cells; also called native DLL4 expressed in HEK293 cells
Method: as §1

T3 sequence (Q9NR61 27-685): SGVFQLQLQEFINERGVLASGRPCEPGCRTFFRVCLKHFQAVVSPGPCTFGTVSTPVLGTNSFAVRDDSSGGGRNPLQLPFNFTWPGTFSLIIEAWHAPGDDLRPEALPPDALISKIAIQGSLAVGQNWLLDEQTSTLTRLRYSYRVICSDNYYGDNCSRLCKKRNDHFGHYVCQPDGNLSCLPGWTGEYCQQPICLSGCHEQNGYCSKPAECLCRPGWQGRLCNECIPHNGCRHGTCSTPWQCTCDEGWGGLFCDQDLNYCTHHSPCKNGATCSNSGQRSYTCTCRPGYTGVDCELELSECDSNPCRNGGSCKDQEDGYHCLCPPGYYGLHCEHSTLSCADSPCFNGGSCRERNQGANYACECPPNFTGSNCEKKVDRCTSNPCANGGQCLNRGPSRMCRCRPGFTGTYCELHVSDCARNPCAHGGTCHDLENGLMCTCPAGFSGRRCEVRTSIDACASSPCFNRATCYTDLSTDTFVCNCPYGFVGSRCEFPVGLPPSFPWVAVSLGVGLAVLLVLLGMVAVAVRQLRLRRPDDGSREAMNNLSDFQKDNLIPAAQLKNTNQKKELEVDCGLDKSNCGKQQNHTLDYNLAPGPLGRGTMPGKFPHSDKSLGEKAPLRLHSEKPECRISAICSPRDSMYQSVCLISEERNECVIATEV

Binder | Count | FL1 | FL1 x count
B1 | 206 | 10400 | 2.14e+06
B2 | 166 | 9470 | 1.57e+06
B3 | 196 | 10600 | 2.08e+06

Each binder was assayed against T3, full length human DLL4 (assay: FMAT competition, supernatant vs Alexa-647 human Notch1/Fc, 293T cells with human DLL4).
Method: Transfected and untransfected 239T cells were reconstituted in PBS containing 2% FCS and 5000 transfected and 17500 non-transfected cells were plated in 20 μl into wells of a 384-well tissue culture plate (Corning Costar, catalog #3712). Subsequently, 20 μl of hybridoma supernatant was added and plates were incubated at 4° C. for 1 h, at which time 20 μl of Alexa-647 labeled human Notch1/Fc was added at a final concentration of 6.7 ng/ml. After a further 3 h incubation at 4° C., the amount of bound Notch1/Fc was determined by reading the fluorescence in each well using an FMAT 8200 instrument (Applied Biosystems). Results are expressed as % inhibitions with the minimum inhibition in the assay being determined by the effects of non-DLL4 binding supernatants prepared in a similar way as described in example 2, and the maximum inhibition being defined as the signal obtained in the presence of a saturating concentration of unlabeled Notch1/Fc. N.T.=not tested

Binder | % inhibition n = 1 [%] | % inhibition n = 2 [%] | % inhibition n = 3 [%] | Mean % inhibition [%]
B1 | 98 | 99 | 113 | 110
B2 | 105 | 120 | 142 | 122
B3 | 105 | 71 | 146 | 107

Each binder was assayed against T3, full length human DLL4 (assay: FMAT competition, purified antibody vs Alexa-647 human Notch1/Fc, 293T cells with human DLL4).
Method: To discriminate between the purified antibodies based upon their ability to prevent the interaction between full-length recombinant DLL4 and soluble Notch1/Fc, the following assays were performed. Transfected and untransfected 239T cells were reconstituted in PBS containing 2% FCS and 5000 transfected and 17500 non-transfected cells were plated in 30 μl into wells of a 384-well tissue culture plate (Corning Costar, catalog #3712). Subsequently, 30 μl of purified antibodies, serial diluted from 5 μg/ml hybridoma supernatant was added and plates were incubated at 4° C. for 1 h, at which time 20 μl of 100 ng/ml Alexa-647 labeled human Notch1/Fc was added. After a further 3 h incubation at 4° C., the amount of bound Notch1/Fc was determined by reading the fluorescence in each well using an FMAT 8200 instrument (Applied Biosystems).

Binder | % inhibition at 0.020 nM [%] | % inhibition at 0.070 nM [%] | % inhibition at 0.21 nM [%] | % inhibition at 0.62 nM [%] | % inhibition at 1.9 nM [%] | % inhibition at 5.6 nM [%] | % inhibition at 16.7 nM [%] | IC50 [nM]
B1 | -7 | 24 | 21 | 46 | 91 | 129 | 120 | 0.99
B2 | -1 | 7 | -1 | 19 | 39 | 82 | 104 | 2.94
B3 | 7 | -2 | 5 | 13 | 58 | 124 | 123 | 2

Each binder was assayed against T2, human Jagged1 (assay: FACS, 5 µg/ml, 293T cells with human Jagged1).
Method: as §2

Binder | Jagged1/293T X Geo mean
B1 | 16.9
B2 | 16.4
B3 | 16.8

These binders were tested against T2, human Jagged1 (assay: FACS, 5 µg/ml, 293T cells with human Jagged1 vs mock).
Method: as §2

Binder | Jagged1/mock ratio
B1 | 1.13
B2 | 1.1
B3 | 1.01

The binders below were run against DLL4 extracellular domain (R&D systems, catalog #1506-D4/CF) (UniProt Q9NR61 27-529, limits assumed) (assay: cell-based or functional assay).
Chain of DLL4 extracellular domain (R&D systems, catalog #1506-D4/CF) (Q9NR61 27-529 limits assumed): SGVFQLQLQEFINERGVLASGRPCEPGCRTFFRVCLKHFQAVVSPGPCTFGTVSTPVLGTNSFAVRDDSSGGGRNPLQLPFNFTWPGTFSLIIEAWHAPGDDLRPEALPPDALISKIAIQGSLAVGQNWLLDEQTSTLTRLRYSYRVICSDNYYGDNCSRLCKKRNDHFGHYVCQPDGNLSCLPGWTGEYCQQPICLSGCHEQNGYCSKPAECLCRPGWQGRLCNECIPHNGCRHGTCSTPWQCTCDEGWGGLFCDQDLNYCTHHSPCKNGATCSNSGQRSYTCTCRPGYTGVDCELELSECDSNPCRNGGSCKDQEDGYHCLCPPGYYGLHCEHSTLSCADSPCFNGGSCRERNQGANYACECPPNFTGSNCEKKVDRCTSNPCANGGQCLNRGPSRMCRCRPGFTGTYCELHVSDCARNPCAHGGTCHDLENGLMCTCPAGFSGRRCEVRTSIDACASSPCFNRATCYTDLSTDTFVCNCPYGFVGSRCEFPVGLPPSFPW

Binder | % inhibition 1 µg/ml, AVERAGE (HUVEC proliferation on coated DLL4) [%] | % inhibition 1 µg/ml, N = 1 (HUVEC proliferation on coated DLL4) [%] | % inhibition 1 µg/ml, N = 2 (HUVEC proliferation on coated DLL4) [%] | % inhibition 10 µg/ml, AVERAGE (HUVEC proliferation on coated DLL4) [%] | % inhibition 10 µg/ml, N = 1 (HUVEC proliferation on coated DLL4) [%] | % inhibition 10 µg/ml, N = 2 (HUVEC proliferation on coated DLL4) [%]
B1 | 74 | 73 | 75 | 82 | 81 | 82
B2 | 65 | 50 | 80 | 90 | 74 | 106
B3 | 45 | 43 | 46 | 72 | 73 | 71
